Measurements published in publication PMC12277127.

What was measured:
Conditions in all cases: protein: recombinant; tags: none left (N-terminal His removed by TEV); chain copies: 3; single strand
[1] = biological target: T1, SPRTN core (E112Q) (human, UniProt Q9H040 26-240, E112Q); assay: ITC; no ubiquitin; N=0.36 ± 0.05; ITC: 50 mM HEPES pH 7.4, 50 mM NaCl, 0.5 mM TCEP-HCl, 25 °C, one-site model
T1 sequence: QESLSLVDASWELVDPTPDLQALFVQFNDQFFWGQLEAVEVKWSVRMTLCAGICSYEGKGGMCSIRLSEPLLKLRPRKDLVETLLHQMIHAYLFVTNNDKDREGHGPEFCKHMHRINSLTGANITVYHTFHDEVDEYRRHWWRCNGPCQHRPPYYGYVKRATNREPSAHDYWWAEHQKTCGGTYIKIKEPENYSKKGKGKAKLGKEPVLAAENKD

[2] = biological target: T1, SPRTN core (E112Q); assay: ITC; with equimolar monoUb; N=0.36 ± 0.02; ITC: 50 mM HEPES pH 7.4, 50 mM NaCl, 0.5 mM TCEP-HCl, 25 °C, one-site model
[3] = biological target: T1, SPRTN core (E112Q); assay: ITC; with equimolar M1-Ub4 (linear tetra-ubiquitin; ternary complex); N=0.29 ± 0.01; ITC: 50 mM HEPES pH 7.4, 50 mM NaCl, 0.5 mM TCEP-HCl, 25 °C, one-site model

B1: ssDNA (20 nt), Turner-20bp-F (ssDNA)
DNA: ACGCCTGAAGAGTCTGGTGA
- Kd [1]: 4.33 ± 0.98 µM
- Kd [2]: 5.15 ± 1.36 µM
- Kd [3]: 0.44 ± 0.03 µM
